T1: human TIGIT expressed on cells (human, UniProt Q495A1 22-244)
T1 sequence (looked up): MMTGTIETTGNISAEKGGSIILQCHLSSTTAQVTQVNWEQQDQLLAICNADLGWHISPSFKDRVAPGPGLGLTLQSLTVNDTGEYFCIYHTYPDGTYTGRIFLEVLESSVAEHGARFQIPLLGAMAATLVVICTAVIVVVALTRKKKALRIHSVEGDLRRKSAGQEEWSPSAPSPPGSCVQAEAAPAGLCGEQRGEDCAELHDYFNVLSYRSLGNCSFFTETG

T2: human TIGIT-His protein (human, UniProt Q495A1 22-141)
T2 construct: Recombinant protein; also called human TIGIT-his tag; hTIGIT-His
T2 sequence (looked up): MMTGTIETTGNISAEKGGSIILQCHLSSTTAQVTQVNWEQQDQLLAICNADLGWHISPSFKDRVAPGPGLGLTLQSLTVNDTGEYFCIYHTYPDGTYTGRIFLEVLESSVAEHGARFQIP

T3: biotin-labeled human TIGIT protein (human, UniProt Q495A1 22-141, biotin-labeled (sites not given))
T3 construct: also called recombinant human TIGIT
T3 sequence (looked up): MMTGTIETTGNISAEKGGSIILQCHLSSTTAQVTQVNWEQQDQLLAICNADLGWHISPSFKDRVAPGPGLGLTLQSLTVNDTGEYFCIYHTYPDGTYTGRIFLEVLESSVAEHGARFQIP

T4: mouse TIGIT protein (mouse, UniProt P86176 29-148, limits assumed)
T4 construct: Recombinant protein coated on the plate
T4 sequence (looked up): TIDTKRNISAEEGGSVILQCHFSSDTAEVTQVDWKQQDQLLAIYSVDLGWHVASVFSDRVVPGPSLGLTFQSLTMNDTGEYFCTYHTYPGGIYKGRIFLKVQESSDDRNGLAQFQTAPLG


How the values were obtained:
[1] = target: T1, human TIGIT expressed on cells; assay: cell-based or functional assay
[2] = target: T1, human TIGIT expressed on cells; assay: flow cytometry on human TIGIT overexpressing cells, Alexa Fluor 647 anti-human IgG; unit from the x axis
Method: (§1) To evaluate the antigen binding property, the humanized antibodies were analyzed for their binding to human TIGIT overexpressed mammalian cells by FACS. Briefly, human TIGIT cells were firstly incubated with 3-fold serious diluted humanized antibodies starting at 5 µg/ml at 4° C. for 40 mins.

[3] = target: T1, human TIGIT expressed on cells; assay: flow cytometry (FACS) on human TIGIT overexpressing mammalian cells
Method: as §1

[4] = target: T2, human TIGIT-His protein; assay: SPR (Biacore) affinity ranking, human TIGIT-His
[5] = target: T3, biotin-labeled human TIGIT protein; assay: ELISA blocking assay: CD155-hFc coated, biotin-labeled human TIGIT, antibody titrated
Method: To evaluate the blocking effects of Hu02 and Hu06 on recombinant human TIGIT to bind to its receptor CD155, an ELISA based receptor blocking assay was used.
Briefly, microtiter plates were coated with human CD155-hFc protein at 5 µg/ml in PBS, 100 µl/well at 4° C. overnight, then blocked with 150 µl/well of 1% BSA. 50 µl biotin-labeled human TIGIT protein and 3-fold dilutions of Hu02 and Hu06 antibodies starting from 10 µg/ml at 50 µl were added to each well and incubated for 1 hour at 37° C. The plates were washed with PBS/Tween and then incubated with Streptavidin-HRP for 10 mins at 37° C. After washing, the plates were developed with TMB substrate and analyzed by spectrophotometer at OD 450 nm.

[6] = target: T2, human TIGIT-His protein; assay: SPR (Biacore T200) full kinetics, antibody captured on Protein A chip, hTIGIT-His as analyte
Method: The binding of the humanized antibodies to recombinant TIGIT protein (human TIGIT-his tag) was tested by BIACORE™ using a capture method. Hu02 and Hu06 mAbs were captured using Protein A chip. A serial dilution of human TIGIT-his tag protein was injected over captured antibody for 2 mins at a flow rate of 30 µl/min. The antigen was allowed to dissociate for 1800 s. All the experiment were carried out on a Biacore T200.

[7] = target: T2, human TIGIT-His protein; assay: ELISA, plate coated with human TIGIT-His, anti-human IgG-HRP, OD 450nm; unit taken from the axis Log[Conc.]/ng/ml
Method: (§2) To evaluate the antigen binding activity, Hu02 and Hu06 were subjected to ELISA test. Briefly, microtiter plates were coated with human TIGIT-his protein at 0.5 µg/ml in PBS, 100 µl/well at 4° C. overnight, then blocked with 150 µl/well of 1% BSA. Three-fold dilutions of humanized antibodies starting from 3 µg/ml were added to each well and incubated for 1 hour at 37° C. The plates were washed with PBS/Tween and then incubated with Goat-anti-human IgG antibody conjugated with Horse Radish Peroxidase (HRP) for 0.5 hour at 37° C. After washing, the plates were developed with TMB substrate and analyzed by spectrophotometer at OD 450 nm.

[8] = target: T1, human TIGIT expressed on cells; assay: cell-based or functional assay; remark: listed apart in the source
[9] = target: T2, human TIGIT-His protein; assay: ELISA, plate coated with human TIGIT-His, anti-human IgG-HRP, OD 450nm; unit taken from the axis Log[Conc.]/ng/ml; remark: listed apart in the source
Method: as §2, with “the humanized antibodies” for “Hu02 and Hu06”, “30 mins” for “0.5 hour”

[10] = target: T2, human TIGIT-His protein; assay: as above; remark: listed apart in the source
Method: To evaluate the antigen binding activity, LP010-02 (Hu02-human IgG1 Fc) and control antibody Tiragolumab (RG6058, Roche), which contains the same IgG1 Fc, were subjected to ELISA testing. Briefly, microtiter plates were coated with human TIGIT-his protein at 0.5 µg/ml in PBS, 100 µl/well at 4° C. overnight, then blocked with 150 µl/well of 1% BSA. Three-fold dilutions of humanized antibodies starting from 3 µg/ml were added to each well and incubated for 1 hour at 37° C. The plates were washed with PBS/Tween and then incubated with Goat-anti-human IgG antibody conjugated with Horse Radish Peroxidase (HRP) for 0.5 hour at 37° C. After washing, the plates were developed with the TMB substrate and analyzed by spectrophotometer at OD 450 nm.

[11] = target: T2, human TIGIT-His protein; assay: ELISA, human TIGIT-His coated
Method: To evaluate the binding activity of 76D12B10, the chimeric mAb was subjected to ELISA test. Briefly, microtiter plates were coated with human TIGIT-His protein at 0.5 µg/ml in PBS, 100µl/well at 4° C. overnight, then blocked with 150 µl/well of 1% BSA. Three-fold dilutions of 76D12B10 antibodies starting from 10 µg/ml were added to each well and incubated for 1 hour at 37° C. The plates were washed with PBS/Tween and then incubated with Goat-anti-human IgG antibody conjugated with Horse Radish Peroxidase (HRP) for 30 mins at 37° C. After washing, the plates were developed with TMB substrate and analyzed by spectrophotometer at OD 450 nm.
(§3) ELISA testing was carried out to evaluate the binding of chimeric antibodies to human, mouse, rat, and cyno TIGIT, respectively. Briefly, microtiter plates were coated with human, mouse, rat and cyno TIGIT proteins at 0.5 µg/ml in PBS, 100 µl/well at 4° C. overnight, then blocked with 150 µl/well of 1% BSA. Three-fold dilutions of chimeric antibodies or biotinylated chimeric antibodies starting from 10 µg/ml were added to each well and incubated for 1 hour at 37° C. The plates were washed with PBS/Tween and then incubated with Goat-anti-human IgG Fab antibody conjugated with Horse Radish Peroxidase (HRP) or Streptavidin-HRP for 30 mins at 37° C. After washing, the plates were developed with TMB substrate and analyzed by spectrophotometer at OD 450 nm.

[12] = target: T2, human TIGIT-His protein; assay: SPR (Biacore T200), antibody captured on CM5 chip, TIGIT-His as analyte
Method: The binding of the 76D12B10 antibodies to recombinant TIGIT protein (human TIGIT-his tag) was tested with BIACORE™ using a capture method. The 76D12B10 mAbs was captured using CM5 chip. A series dilution of human TIGIT-his tag protein was injected over captured antibody for 1 min at a flow rate of 30 µl/min. The antigen was allowed to dissociate for 300 s. All the experiment were carried out on a Biacore T200. Data analysis was carried out using Biacore T200 evaluation software.

[13] = target: T4, mouse TIGIT protein; assay: ELISA, mouse TIGIT coated at 0.5 µg/ml
Method: as §3

Binder | EC50, NFAT luciferase reporter (RLU), TIGIT-CD226-NFAT effector cells with Raji-CD155 target cells [1] [nM] | LogEC50, NFAT luciferase reporter (RLU), TIGIT-CD226-NFAT effector cells with Raji-CD155 target cells [1] | LogEC50 [2] | EC50 [3] [µg/mL] | Kd [4] [nM] | koff [4] [s⁻¹] | kon [4] [M⁻¹ s⁻¹] | IC50 [5] [µg/mL] | Kd [6] [nM] | koff [6] [s⁻¹] | kon [6] [M⁻¹ s⁻¹] | EC50 [7] [µg/mL] | NFAT luciferase production, EC50 [8] [nM] | EC50 [9] [µg/mL] | EC50 [10] [µg/mL] | EC50 [11] [µg/mL] | Kd [12] [nM] | koff [12] [s⁻¹] | kon [12] [M⁻¹ s⁻¹] | binding result [13]
Tiragolumab (RG6058, Roche) (antibody, V domains shown) VH: EVQLQQSGPGLVKPSQTLSLTCAISGDSVSSNSAAWNWIRQSPSRGLEWLGKTYYRFKWYSDYAVSVKGRITINPDTSKNQFSLQLNSVTPEDTAVFYCTRESTTYDLLAGPFDYWGQGTLVTVSS VL: not shown | 2.95 | 0.47 Log[Conc.]/nM | 1.57 Log[Conc.]/ng/ml | 0.0368 |  |  |  |  |  |  |  |  |  |  |  |  |  |  |  | 
76D12B10-Hu02 (antibody, V domains shown, Humanized, VH.V2 + VK.V0) VH: EVQLQESGPGLVKPSETLSLTCAVSGYSISSGYDWHWIRQPPGKGLEWIGFIRDSGSTVYNPSLKGRITISHDTSKNQFSLKLSSVTAADTAVYYCARGLFWYFDVWGQGTTVTVSS VL: DIQMTQSPSSLSASVGDRVTITCRTSENIFSYLAWYQQKPGKVPKLLIYNTKTLAEGVPSRFSGSGSGTDFTLTISSLQPEDVATYYCQHHYGNPLTFGQGTKLEIK |  |  |  |  | 0.0196 | 9.74e-05 | 4.98e+06 | 1.13 | 0.0462 | 9.27e-05 | 2e+06 | 0.00823 | 1.76 | 0.0103 |  |  |  |  |  | 
76D12B10-Hu06 (antibody, V domains shown, Humanized, VH.V1 + VK.V1) VH: EVQLQESGPGLVKPSETLSLTCAVSGYSISSGYDWHWIRQPPGKGLEWIGFIRDSGSTVYNPSLKGRVTISHDTSKNQFSLKLSSVTAADTAVYYCARGLFWYFDVWGQGTTVTVSS VL: DIQMTQSPSSLSASVGDRVTITCRTSENIFSYLAWYQQKPGKVPKLLIHNTKTLAEGVPSRFSGSGSGTDFTLTISSLQPEDVATYYCQHHYGNPLTFGQGTKLEIK |  |  |  |  | 0.0136 | 0.000101 | 7.43e+06 | 0.866 | 0.0416 | 7.18e-05 | 1.72e+06 | 0.00934 | 1.67 | 0.0104 |  |  |  |  |  | 
LP010-02 (Hu02-human IgG1 Fc) (antibody, V domains shown) VH: EVQLQESGPGLVKPSETLSLTCAVSGYSISSGYDWHWIRQPPGKGLEWIGFIRDSGSTVYNPSLKGRITISHDTSKNQFSLKLSSVTAADTAVYYCARGLFWYFDVWGQGTTVTVSS VL: DIQMTQSPSSLSASVGDRVTITCRTSENIFSYLAWYQQKPGKVPKLLIYNTKTLAEGVPSRFSGSGSGTDFTLTISSLQPEDVATYYCQHHYGNPLTFGQGTKLEIK | 1.95 | 0.29 Log[Conc.]/nM | 1.52 Log[Conc.]/ng/ml | 0.0328 |  |  |  | 0.531 |  |  |  |  |  |  | 0.00654 |  |  |  |  | 
76D12B10 chimeric antibody (antibody, V domains shown, Mouse variable regions of hybridoma clone 76D12B10; tested as chimeric mAb (detected with anti-human IgG); also called 76D12B10-Chimera; 76D12B10 chimera) VH: DVQLQESGPGMVKPSQSLSLTCTATGYSITSGYDWHWIRHFPGKKLEWMGFIRDSGSTVYNPSLKGRISITHDTSKNRFFLKLNSVTPEDTATYFCARGLFWYFDVWGTGTTVTVSS VL: DIQMTQSPASLSASVGETVTITCRTSENIFSYLAWYQQKQGNSPQLLVHNTKTLAEGVPSRFSGSGSGTQFSLKISNLQPEDFGSYYCQHHYGNPLTFGAGTKLELK |  |  |  |  | 0.0161 | 0.000182 | 1.13e+07 | 1.11 |  |  |  | 0.0076 | 1.24 | 0.00937 |  | 0.00857 | 0.259 | 0.000326 | 1.26e+06 | no binding

Reference: patent publication US11028172 (LEPU BIOPHARMA, dated 2021)
